These results are taken from patent publication US20250136677A1 (ZOETIS SERVICES, published 2025).

Experiment [1] has as its target T1, wildtype feline IL-31 protein (Feline_IL31_wildtype) (feline).
T1 chain: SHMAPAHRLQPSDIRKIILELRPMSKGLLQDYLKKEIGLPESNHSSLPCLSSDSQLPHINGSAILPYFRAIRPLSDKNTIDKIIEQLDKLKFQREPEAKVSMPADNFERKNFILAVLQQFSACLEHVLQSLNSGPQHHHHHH
As to the kind of experiment: cell-based or functional assay.

Experiment [2] has as its target T1, wildtype feline IL-31 protein …. As to the kind of experiment: Biacore, feline IL-31 chip, mAb 100 nM, share of points within parent mean +/-3 SD. Also on record: key: % of mutant data points within parent mAb mean ±3 SD. An excerpt:
The mean response unit of four replicates of the parent mAb+/−3 standard deviations was used to generate parameters to define a threshold of response units comprising both the on- and off-rates antibody binding (FIG. 22). The percentage of data points for each mutant fell within this threshold was then used to define a “% similarity score” (FIG. 23).

Experiment [3] has as its target T2, canine IL-31 protein (Canine_IL31) (canine).
T2 chain: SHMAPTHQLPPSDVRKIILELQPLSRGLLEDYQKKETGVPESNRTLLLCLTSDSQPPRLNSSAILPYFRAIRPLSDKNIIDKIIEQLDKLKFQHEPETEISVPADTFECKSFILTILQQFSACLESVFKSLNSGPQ
As to the kind of experiment: SPR (Biacore), IL-31 on chip, 1:1 fit. (In general: In SPR one partner is held on a chip, and binding of the other changes the refractive index at the surface.)

Experiment [4] concerns the target T1, wildtype feline IL-31 protein …. Description: SPR (Biacore), IL-31 on chip, 1:1 fit. Here is the method:
The affinity with which candidate mAbs bind canine and feline IL-31 was determined using surface plasmon resonance (SPR) on a Biacore system (Biocore Life Sciences (GE Healthcare), Uppsala, Sweden). To avoid affinity differences associated with differential surface preparation that can occur when immobilizing antibodies to surfaces; a strategy was employed where IL-31 was directly conjugated to the surface. Immobilization was obtained by amine coupling 5 μg/mL IL-31 using N-hydroxysuccinimide (NHS)/1-Ethyl-3-(3-dimethylaminopropyl) carbodiimide (EDC) chemistry. Chips were quenched with ethanolamine and the affinity with which all candidate mAbs bound to the immobilized IL-31 was evaluated. All curves were fit to a 1:1 model. […] Results for affinity measurements are described herein.

Positions count from the first letter of the chain named. Numbers in names are those of the source.

One may read the koff as a measure of how fast the partners let go of each other. In general, kon refers to the rate constant with which the complex forms. One may read the Kd as a measure of binding affinity in units of concentration.

B1: A30 (antibody, V domains shown)
VH: QVLLVQSGAEVRTPGASVKIFCKASGYSFASYTIHWLRQAPAQGLEWMGNINPTSGYTENNQRFKDRLTLTADTSTNTAYMELSSLRSADTAMYYCARWGFKYDGEWSFDVWGAGTTVTVSS
VL: EIQMTQSPSSLSASPGDRVTITCRASQGISIWLSWYQQKPGNIPKVLINKASNLHIGVPSRFSGSGSGTDFTLTISSLEPEDAATYYCLQSQTYPLTFGGGTKLEIK
Regarding B1, the “% Inhibition Relative to Parent (pSTAT, FCWF-4 cells)” value (“% Inhibition Relative to Parent” for short) in experiment [1] turned out to be 28.4%. In addition, in experiment [2], the “Binding Similarity score” value amounted to 79.

B2: Feline 15H05 1.2 (antibody, V domains shown)
VH: B1 VH with A30T
VL: EITMTQSPGSLAGSPGQQVTMNCRASQGISIWLSWYQQKPGQHPKLLIYKASNLHIGVPDRFSGSGSGTDFTLTISNLQAEDVASYYCLQSQTYPLTFGGGTKLEIK
notes: Feline heavy and kappa constant regions
In experiment [3], B2 registered a koff of 0.000115 s⁻¹ and an on-rate constant (kon) of 33000 M⁻¹ s⁻¹. Also, in experiment [4], the Kd was found to be 104 nM, the koff came out at 0.00147 s⁻¹ and the kon was 14100 M⁻¹ s⁻¹.

B3: Feline 15H05 1.3 (antibody, V domains shown)
VH: B1 VH with A30T
VL: EVVLTQSSAFLSRTLKEKATITCRASQGISIWLSWYQQKPNQAPKLLVKKASNLHIGAPSRFSGSGSGTDFTLTISSPEPEDAATYYCLQSQTYPLTFGGGTKLGDQ
notes: as for B2
In experiment [3], B3 registered a koff of 0.00019 s⁻¹ and an association rate constant (kon) of 29700 M⁻¹ s⁻¹. In experiment [4], this molecule yielded an equilibrium dissociation constant (Kd) of 86.4 nM, an off-rate constant (koff) of 0.00328 s⁻¹ and a kon of 38000 M⁻¹ s⁻¹.

B4: A43 (antibody, V domains shown)
VH: B1 VH with A30T, S55A
VL: B1 VL
As for B4, in experiment [1], the “% Inhibition Relative to Parent” value amounted to 47.4%. In addition, the “Binding Similarity score” value in experiment [2] was 100.

B5: Feline 15H05 3.2 (antibody, V domains shown)
VH: B1 VH with T13K, A30T, A42E
VL: B2 VL
notes: as for B2
With B5, in experiment [3], the koff worked out at 6.04e-06 s⁻¹ and the kon is 29700 M⁻¹ s⁻¹. In experiment [4], this molecule showed a dissociation constant Kd of 12.6 nM, an off-rate constant (koff) of 0.00166 s⁻¹ and a kon of 132000 M⁻¹ s⁻¹.

B6: A55 (antibody, V domains shown)
VH: B1 VH with A30T, K102A
VL: B1 VL
For B6, the “% Inhibition Relative to Parent” value in experiment [1] stood at 66.8%. Further, the “Binding Similarity score” value in experiment [2] was found to be 12.6.

B7: A47 (antibody, V domains shown)
VH: B1 VH with A30T, E59A
VL: B1 VL
Consider B7, for which the “% Inhibition Relative to Parent” value in experiment [1] is 18%. In addition, the “Binding Similarity score” value in experiment [2] was found to be 100.

B8: A44 (antibody, V domains shown)
VH: B1 VH with A30T, G56A
VL: B1 VL
For the molecule B8, the “% Inhibition Relative to Parent” value in experiment [1] was 36.9%. Moreover, the “Binding Similarity score” value in experiment [2] was 55.8.

B9: A45 (antibody, V domains shown)
VH: B1 VH with A30T, Y57A
VL: B1 VL
For the molecule B9, the “% Inhibition Relative to Parent” value in experiment [1] amounted to 22.8%. In addition, the “Binding Similarity score” value in experiment [2] amounted to 31.9.

B10: A50 (antibody, V domains shown)
VH: B1 VH with A30T, Q62A
VL: B1 VL
B10: in experiment [1], the “% Inhibition Relative to Parent” value is 55.5%. In experiment [2], the “Binding Similarity score” value is 58.6.

B11: A42 (antibody, V domains shown)
VH: B1 VH with A30T, T54A
VL: B1 VL
Consider B11, for which the “% Inhibition Relative to Parent” value in experiment [1] was found to be 83.6%. The “Binding Similarity score” value in experiment [2] came to 44.9.

B12: A34 (antibody, V domains shown)
VH: B1 VH with A30T, T33A
VL: B1 VL
On to B12, for which the “% Inhibition Relative to Parent” value in experiment [1] was 0%. Moreover, the “Binding Similarity score” value in experiment [2] was 3.37.

B13: A57 (antibody, V domains shown)
VH: B1 VH with A30T, D104A
VL: B1 VL
As for B13, in experiment [1], the “% Inhibition Relative to Parent” value came to 85.4%. Also, in experiment [2], the “Binding Similarity score” value is 38.9.

B14: Feline 15H05 2.2 (antibody, V domains shown)
VH: B1 VH with S28G, A30T, L37V, A40S
VL: B2 VL
notes: as for B2
In experiment [3], B14 had a koff of 1.09e-05 s⁻¹ and a kon of 27700 M⁻¹ s⁻¹. In experiment [4], this molecule showed a Kd of 2.15 nM, a koff of 0.00195 s⁻¹ and a kon of 905000 M⁻¹ s⁻¹.

B15: A49 (antibody, V domains shown)
VH: B1 VH with A30T, N61A
VL: B1 VL
For the molecule B15, in experiment [1], the “% Inhibition Relative to Parent” value is 46.6%. In experiment [2], the “Binding Similarity score” value came out at 37.

B16: A32 (antibody, V domains shown)
VH: B1 VH with A30T, S31A
VL: B1 VL
Regarding B16, the “% Inhibition Relative to Parent” value in experiment [1] is 40.3%. In addition, in experiment [2], the “Binding Similarity score” value came to 39.2.

B17: A38 (antibody, V domains shown)
VH: B1 VH with A30T, I51A
VL: B1 VL
In the case of B17, the “% Inhibition Relative to Parent” value in experiment [1] came to 42.2%. The “Binding Similarity score” value in experiment [2] turned out to be 55.1.

B18: A39 (antibody, V domains shown)
VH: B1 VH with A30T, N52A
VL: B1 VL
As to B18, the “% Inhibition Relative to Parent” value in experiment [1] amounted to 25.1%. Besides, the “Binding Similarity score” value in experiment [2] is 100.

B19: A54 (antibody, V domains shown)
VH: B1 VH with A30T, F101A
VL: B1 VL
Take B19: the “% Inhibition Relative to Parent” value in experiment [1] was -1%. For the same molecule, the “Binding Similarity score” value in experiment [2] is 17.6.

B20: A35 (antibody, V domains shown)
VH: B1 VH with A30T, I34A
VL: B1 VL
Regarding B20, the “% Inhibition Relative to Parent” value in experiment [1] is 92.5%. Further, the “Binding Similarity score” value in experiment [2] came to 97.5.

B21: A40 (antibody, V domains shown)
VH: B1 VH with A30T, P53A
VL: B1 VL
Consider B21, for which the “% Inhibition Relative to Parent” value in experiment [1] is 5.7%. In addition, the “Binding Similarity score” value in experiment [2] was 2.7.

B22: A37 (antibody, V domains shown)
VH: B1 VH with A30T, N50A
VL: B1 VL
For the molecule B22, the “% Inhibition Relative to Parent” value in experiment [1] was found to be 52.1%. Further, in experiment [2], the “Binding Similarity score” value came out at 46.1.

B23: A36 (antibody, V domains shown)
VH: B1 VH with A30T, H35A
VL: B1 VL
As for B23, the “% Inhibition Relative to Parent” value in experiment [1] is 25.2%. In addition, the “Binding Similarity score” value in experiment [2] amounted to 10.4.

B24: A48 (antibody, V domains shown)
VH: B1 VH with A30T, N60A
VL: B1 VL
On to B24, for which the “% Inhibition Relative to Parent” value in experiment [1] stood at 47.3%. In addition, the “Binding Similarity score” value in experiment [2] is 70.2.

B25: A52 (antibody, V domains shown)
VH: B1 VH with A30T, W99A
VL: B1 VL
Take B25: in experiment [1], the “% Inhibition Relative to Parent” value was -2.1%. Also, the “Binding Similarity score” value in experiment [2] was determined as 2.4.

B26: Feline_11E12 1.1_K46Q (antibody, V domains shown)
VH: QVLLVQSGAEVKKPGASVKIFCKASGYSFTYYDINWLRQAPEQGLEWMGWIFPGDGGTKYNETFKGRLTLTADTSTNTVYMELSSLRSADTAMYYCARGGTSVIRDAMDYWGQGALVTVSS
VL: EIQMTQSPSSLSASPGDRVTITCRASESVDNYGISFMHWYQQKPGQVPKLLIYRASNLESGVPSRFSGSGSGTDFTLTISSLEPEDAATYYCQQSNKDPLTFGQGTKLEIK
notes: felinized 11E12 with the single VL substitution K46Q; copies: 2 + 2
In the case of B26, in experiment [3], the koff turned out to be 8.85e-05 s⁻¹ and the kon stood at 46400 M⁻¹ s⁻¹. Also, in experiment [4], the Kd came to 12.6 nM, the koff turned out to be 0.000145 s⁻¹ and the kon was determined as 11500 M⁻¹ s⁻¹.
